Results published in US20220144922A1 (Adimab, published 2022).
Numbering of substitutions follows the chain as printed.

B1: ADI-15621 (antibody, V domains shown)
VH: QVQLVQSGPEMKKPGSSVKVSCKPSGGTFSSYSVSWVRQAPGQGLEWMGGIIPIFGSSDYAQKFQGRLTITEDESTKTSYMQLNNLTSDDTAIYFCARDNYYVWTGHYPEFDFWGQGTLVTVSS
VL: ETTLTQSPGTLSLSLGETATLSCRASQSVRSDYLAWYQQKPGQAPRLLISGASNRATAIPERFTGSGSGTDFTLTISSLEPADFAVYYCQQYGSTPITFGQGTRLEIK
notes: IgG; also called Antibody Number 186
B2: ADI-15574 (antibody, V domains shown)
VH: QVQLVQSGGGLVKPGGSLRLSCAASGFTISGYNMFWVRQPPGKGLEWVSSITAGSSYLNYADSVKGRFIVSRDNAKNSLYLQMNSLRAEDTAVYFCARAPLLPAMMDLWGQGTTVTVSS
VL: QSVLTQPPSVSGAPGQRVTISCTGSSSNIGAGYDVHWYQQLPGTAPKLLIYTNNNRPSGVPDRFSGSKSGTSASLAITGLQAEDEADYYCQSYDRSLNGYVFGTGTKLTVL
notes: IgG; also called Antibody Number 144
B3: ADI-15624 (antibody, V domains shown)
VH: QVQLVQSGGGLVKAGGSLRLSCAASGFTISGFYMTWIRQAPGKGLEWVSSISGSSSYTNYADSVKGRFTISRDNAKNSLYLHMNSLRAEDTAVYYCARIRPDDSSGYPDYWGQGTLVTVSS
VL: B2 VL with Y38C, T52G, R95S, N98S, Y100F, L108V
notes: IgG; also called Antibody Number 189
B4: ADI-15638 (antibody, V domains shown)
VH: EVQLVESGGGLVKPGGSLRLSCAASGFTITSYGMNWVRQAPGKGLEWVSSISSSSSFIHYGDSVKGRFTISRDNAKNSLYLQMNSLRAGDTAVYYCVRDSGHQDYRGDYWGQGTLVTVSS
VL: B2 VL with L4V, T19S, T78N, N98S, Y100W, T104G
notes: IgG
B5: ADI-15635 (antibody, V domains shown)
VH: B2 VH with Q1E, V5L, Q6E
VL: B2 VL with L108V
notes: IgG; also called Antibody Number 200
B6: ADI-15648 (antibody, V domains shown)
VH: B2 VH with Q1E, Q6E
VL: B2 VL with L4V, K107T, L108V
notes: IgG; also called Antibody Number 212
B7: ADI-15557 (antibody, V domains shown)
VH: QVQLVQSGAEVKRPGSSVKVSCKASGGTFSSFAINWVRQAPGQGLEWMGGLIPIFGTPNNAQKFQGRVTITADESTSTAYMELSSLRSEDTAVYYCASLRYFDWQPGGSYWFDPWGQGTLVTVSS
VL: QPGLTQPPSVSVAPGKTARIACGGDNIGTKGVHWYQQKPGQAPVLVIYYDSDRPSGIPERFSGSNSGNTATLTISGVEAGDEADYYCQVWDTIDDHKDGLFGGGTKLTVL
notes: IgG
B8: ADI-15558 (antibody, V domains shown)
VH: QVQLVQSGGEVKKPGASVKVSCKASGYTFTTYGISWVRQAPGHGLEWLGWISPKNGNTKYAQKVQGRVTMTIDPTTSTAYMELRSLRSDDTAMYYCARDYIVAIVAALPHGMDVWGQGTLVTVSS
VL: QSVLTQPPSLSVSPGQTASISCSGDQLGNKYVCWYQQKPGQSPVLVIYQDSRRPSGVPERFSGSNSGNTATLTVGGTQPMDEADYYCQAWDSSIRVFGGGTKVTVL
notes: IgG
B9: ADI-15625 (antibody, V domains shown)
VH: EVQLVESGAEVRKPGASVQVSCKASGYTFTSYYMHWVRQAPGHGLEWMGMIYPSGGSTSYAQKFQGRVTMTRDTSTSTVYMELSSLRSEDAAVYYCARDRAGCSGGSCYYYGMDVWGQGTTVTVSS
VL: NFMLTQPPSVSVSPGQTASITCSGNKLGDKYACWYQQKPGQSPVLVISQDSKRPSGIPERFSGSNSGNTATLTISGTQAMDEADYYCQAWDSRTVVFGGGTKLTVL
notes: IgG; also called Antibody Number 190
B10: ADI-15618 (antibody, V domains shown)
VH: EVQLVETGGGLIQPGGSLRLSCVASGFSLRNYALGWLRQAPGKGLEWVSGGYYGDVYYTDSVKGRFAVSRDNSGDTVYLEMDNLRVEDTAVYYCARMETVTTDAGSGWDWYFEVWGRGTLVTVSS
VL: ETTLTQSPATLSLSPGDWATLSCRASQSVGTYLAWYQHKPGQAPRLLIHDASNRASDIPSRFSGSGSGTDFTLTIRGLEPEDFAVYYCQQHRDWRPVTFGGGTKVEIK
notes: IgG
B11: ADI-15616 (antibody, V domains shown)
VH: QVQLVQSGGGLVKPGGSLRLSCAASGFTFSDHYMTWIRQAPGKGLEWVSYISSTSSFTNYADSVKGRFTISRDNAKKSLYLQMNSLRAEDTAVYYCARDRNWGYAYGSDYWGQGTLVTVSS
VL: DIRLTQSPDTLSLSPGERATLSCRASQSVSSTYLAWYQQKPGQAPRLLIYGAFGRATGIPDRFSGSGSGTDFTLTISRLEPEDFAVYYCQLYGNSRTFGQGTKLEIK
notes: IgG
B12: ADI-15637 (antibody, V domains shown)
VH: QVQLVQSGAEVTKPGASVRVSCKFSAYTLSALSIHWVRQAPGKGLEWMGAFDPEDGEPIYSQHFQGRVTMTEDTSTQTAYMELNSLRSEDTAVYYCSSVGPAGWFDPWGQGTLVTVSS
VL: DIRLTQSPSSLSASVGDRVSITCRASQSISSYLHWYQQKPGKAPKLLIYAASSLQSGVPSRFSGSGSGSDFTLTISSLQPEDFATYYCHQSYIPPFTFGPGTKLEIK
notes: IgG; also called Antibody Number 202
B13: ADI-15631 (antibody, V domains shown)
VH: QVQLVESGGGLVQPGRSLRLSCAASGFTFDNYPMHWIRQAPGKGLEWVSGISWHSGSIGYADSVKGRFTISRDNAKNSLYLQMNSLRTEDTALYYCAKDAHYFDNSGHYYYGLDVWGQGTTVTVSS
VL: EIVLTQSPATLSVSPGERATLSCRASQNIINNLAWYQQKPGQAPRLLISGASTRATGIPARFSGSGSGTEFTLTITSLQSEDFAVYYCQQYNNWPLTFGGGTKVDIK
notes: IgG
B14: ADI-15620 (antibody, V domains shown)
VH: QVQLVQSGAEVKKPGASVKVSCKASGYTFTSYDINWVRQATGHGLEWMGWMSPNSGYTGYAQKFQGRVTMSRNTSTGTAYMELSSLRSEDTAVYYCAREARDLRVGATNFDYWGQGTLVTVSS
VL: QPVLTQPPSVSVSPGQTASITCSGDKLGDKYISWYQQRPGQSPVMVIYQDSKGPSGIPERFSGSNSGNTATLTISGTQAMDEADYYCQAWDSSIDVVFGGGTKLTVL
notes: IgG
B15: ADI-15622 (antibody, V domains shown)
VH: QVQLQESGGGLVQPGGSLRLSCSASGFTFSNYGMSWVRQAPGKGLEWVSGIGVSDGSTHYADSVKGRFIISRDNSKNMLSLQMSSLGVDDTAVYYCARIVIVGVLRFQEWLSSDGMDVWGQGTTVTVSS
VL: DIVMTQTPSSVSASVGDRVTITCRASQAISGGLAWYQQKAGKAPKLLIYAASNLPSGVPSRFSGSGSGTDFTLTISSLQPEDFATYYCQQANSFPFTFGQGTRLEIK
notes: IgG; also called Antibody Number 187
B16: ADI-15559 (antibody, V domains shown)
VH: QVQLVQSGAEVKKPGSSVKVSCKASGGSLSTYGIHWVRQAPGQGLEWVGGVMTVYGKTTYGQNFQGRVTIAVDRSTNTAYMELSSLTSDDTGTYYCATDSYYVWTGSYPPPFDLWGQGTLVTVSS
VL: EIVLTQTPGTQSLSPGQSATLSCRASHSVGNDYLAWYQQKPGQSPRLLIHGAYRRDSGIPDRFIGSGSGTDFTLTIDSLEPDDCAVYYCQQYGSWPLTFGGGTKVDIK
notes: IgG; also called Antibody Number 130
B17: ADI-15597 (antibody, V domains shown)
VH: QVQLVQSGGGLVKPGGSLRLSCAGSGFTFSSYTLNWVRQAPGKGLEWVSSISSSSTYIYYADSVKGRFTISRDNAKNSLHLQMNSLRAEDTAVYYCARADYDRSVYHLNWFDPWGQGTLVTVSS
VL: QSVLTQPPSVSGAPGQRVTISCTGSSSNIGAGYDVHWYQQLPGAAPKLLIYGNTNRPSGVPDRFSGSKSGTSASLAITGLQADDEADYYCQSYDSSLSGTWVFGGGTKLTVL
notes: IgG
B18: ADI-15615 (antibody, V domains shown)
VH: B17 VH with Q1E, Q6E, S7T, F111L
VL: B17 VL with S2P
notes: IgG; also called Antibody Number 180
B19: ADI-15607 (antibody, V domains shown)
VH: QVQLVQSGGGLVQPGGSLRLSCAASRFTFSSYAMSWVRQAPGKGLEWVSTISGSGISTYYADSVKGRFTISRDNSKNTLYLQMNSLSAEDTAVYYCAKELREYYYDSSGFDYWGQGTLVTVSS
VL: QPVLTQSRSVSGSPEQSVTISCTGTSSDVGGYNYVSWYQQHPGKAPKLMIYDVSKRPSGVPDRFSGSKSGNTASLTISGLQAEDESDYYCCSYAGTYTYVFGTGTKVTVL
B20: ADI-15595 (antibody, V domains shown)
VH: EVQLVESGPTLVKPTQTLTLTCTFSGFSLTTIGVGVGWIRQPPGKALEFLGIVYWDDDKRYSPSLKSRLTITKDTSKNQVVLTMTTLAPEDTGTYYCTYARYSSALFGGYYFHSWGQGTLVTVSS
VL: QSVLTQPPSVSVAPGQTAKITCGGNDIGSRSVHWYQQKPGQAPVLVVYDNSDRPSGIPERFSGSNSGDTATLTISRVEAGDEAVYYCQVWESSGDHPRIFGGGTKLTVL

These binders were tested against T1, prefusion-stabilized RSV F ectodomain (DS-Cav1), subtype B (respiratory syncytial virus subtype B) (assay: BLI, IgG on sensor).
T1 construct: extracellular domain; also called Prefusion subtype B
Protocol: IgG binding to DS-Cav1 and FA FP was determined by BLI measurements using a FortéBio Octet HTX instrument (Pall Life Sciences). […] Data was analyzed using the ForteBio Data Analysis Software 7. The data was fit to a 1:1 binding model to calculate an association and dissociation rate, and KD was calculated using the ratio kd/kₐ.
In the case of B1, the Kd is reported as 0.555 nM. With B2 the Kd was 0.46 nM. For B3, the Kd was 0.407 nM. Binder B4 has a Kd of 0.402 nM. For B5, the Kd was 0.431 nM. B6 was tested, and the Kd was 0.438 nM. Work on B7 yielded a Kd of 0.61 nM. B8 was tested, and the Kd was 0.94 nM. In the case of B9, the Kd is reported as 2.61 nM. With B10 the Kd was 0.535 nM. For B11, the Kd was 1.74 nM. For B12, the Kd was 6.13 nM. B13 gave a Kd of 0.552 nM. Binder B14 has a Kd of 1.4 nM. For B15, the Kd was 1.51 nM. In the case of B16, the Kd is reported as 0.98 nM. With B17 the Kd was 6.09 nM. Binder B18 has a Kd of 11.6 nM.

These binders were tested against RSV F protein of subtype A strain A2, on virus (respiratory syncytial virus subtype A …, UniProt P03420 26-574) (assay: cell-based or functional assay).
For B1, the “Neut IC50 (ug/ml) subtype A” value was 0.018 µg/mL. For B2, the “Neut IC50 (ug/ml) subtype A” value was 0.176 µg/mL. For B3, the “Neut IC50 (ug/ml) subtype A” value was 0.051 µg/mL. For B4, the “Neut IC50 (ug/ml) subtype A” value was 0.178 µg/mL. With B5 the “Neut IC50 (ug/ml) subtype A” value was 0.115 µg/mL. For B6, the “Neut IC50 (ug/ml) subtype A” value was 0.064 µg/mL. With B7 the “Neut IC50 (ug/ml) subtype A” value was 0.041 µg/mL. For B9, the “Neut IC50 (ug/ml) subtype A” value was 0.239 µg/mL. With B10 the “Neut IC50 (ug/ml) subtype A” value was 0.003 µg/mL. B19 was tested, and the “Neut IC50 (ug/ml) subtype A” value was greater than 10 µg/mL. For B11, the “Neut IC50 (ug/ml) subtype A” value was 4.52 µg/mL. For B12, the “Neut IC50 (ug/ml) subtype A” value was 0.357 µg/mL. For B13, the “Neut IC50 (ug/ml) subtype A” value was 0.099 µg/mL. B14 was tested, and the “Neut IC50 (ug/ml) subtype A” value was 0.077 µg/mL. For B15, the “Neut IC50 (ug/ml) subtype A” value was 0.544 µg/mL. For B20, the “Neut IC50 (ug/ml) subtype A” value was 0.02 µg/mL. B16 was tested, and the “Neut IC50 (ug/ml) subtype A” value was 0.008 µg/mL. In the case of B17, the “Neut IC50 (ug/ml) subtype A” value is reported as 0.163 µg/mL. With B18 the “Neut IC50 (ug/ml) subtype A” value was 0.977 µg/mL.

The binders below were run against RSV F protein of subtype B strain 18537, on virus (respiratory syncytial virus subtype B …, UniProt P13843 26-574) (assay: cell-based or functional assay).
In the case of B1, the “Neut IC50 (ug/ml) subtype B” value is reported as 0.021 µg/mL. For B2, the “Neut IC50 (ug/ml) subtype B” value was 0.226 µg/mL. For B3, the “Neut IC50 (ug/ml) subtype B” value was 0.033 µg/mL. B4 was tested, and the “Neut IC50 (ug/ml) subtype B” value was greater than 10 µg/mL. With B5 the “Neut IC50 (ug/ml) subtype B” value was 0.226 µg/mL. For B6, the “Neut IC50 (ug/ml) subtype B” value was 0.145 µg/mL. In the case of B7, the “Neut IC50 (ug/ml) subtype B” value is reported as 0.028 µg/mL. B9 was tested, and the “Neut IC50 (ug/ml) subtype B” value was 1.2 µg/mL. With B19 the “Neut IC50 (ug/ml) subtype B” value was greater than 10 µg/mL. In the case of B11, the “Neut IC50 (ug/ml) subtype B” value is reported as 5.58 µg/mL. In the case of B12, the “Neut IC50 (ug/ml) subtype B” value is reported as 1.05 µg/mL. B13 was tested, and the “Neut IC50 (ug/ml) subtype B” value was 0.207 µg/mL. B14 was tested, and the “Neut IC50 (ug/ml) subtype B” value was 0.053 µg/mL. With B15 the “Neut IC50 (ug/ml) subtype B” value was 1.37 µg/mL. In the case of B20, the “Neut IC50 (ug/ml) subtype B” value is reported as 0.17 µg/mL. With B16 the “Neut IC50 (ug/ml) subtype B” value was 0.006 µg/mL. B17 was tested, and the “Neut IC50 (ug/ml) subtype B” value was 1.79 µg/mL. B18 was tested, and the “Neut IC50 (ug/ml) subtype B” value was 1.68 µg/mL.
